In paper PMC3743062 (Scientific Reports, 2013):

Molecular target: Calmodulin (CaM), wild type (UniProt P0DP23 1-149)
Assay: crystal structure

B1: NaV1.6 IQ motif (1893-1914), the part of the fusion CaM-(Gly)5-NaV1.6 IQ (domain or fragment)
chain: EEVSAVVLQRAYRGHLARRGFI
B1: binds.
